From US11267868 (dated 2022)

T1: FcgRIIaR (human, UniProt P12318)
T1 chain: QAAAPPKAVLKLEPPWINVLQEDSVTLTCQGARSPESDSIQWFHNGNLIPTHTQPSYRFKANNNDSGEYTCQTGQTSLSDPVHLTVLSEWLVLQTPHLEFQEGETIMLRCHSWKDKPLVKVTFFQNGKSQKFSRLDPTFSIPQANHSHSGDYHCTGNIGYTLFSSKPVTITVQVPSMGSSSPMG

T2: FcgRIIb (human, UniProt P31994)
T2 chain: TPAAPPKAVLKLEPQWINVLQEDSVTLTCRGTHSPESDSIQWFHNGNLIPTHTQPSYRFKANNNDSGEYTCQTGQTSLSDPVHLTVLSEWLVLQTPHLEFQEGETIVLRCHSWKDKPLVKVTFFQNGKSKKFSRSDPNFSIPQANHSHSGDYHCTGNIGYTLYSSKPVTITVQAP

T3: FcgRIIaH (human, UniProt P12318)
T3 chain: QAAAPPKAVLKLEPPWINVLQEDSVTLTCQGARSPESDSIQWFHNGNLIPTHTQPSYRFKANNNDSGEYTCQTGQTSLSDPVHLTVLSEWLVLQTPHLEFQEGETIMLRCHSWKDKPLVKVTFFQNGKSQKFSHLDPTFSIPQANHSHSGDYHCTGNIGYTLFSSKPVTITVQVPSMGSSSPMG

T4: FcgRIa (human, UniProt P12314)
T4 chain: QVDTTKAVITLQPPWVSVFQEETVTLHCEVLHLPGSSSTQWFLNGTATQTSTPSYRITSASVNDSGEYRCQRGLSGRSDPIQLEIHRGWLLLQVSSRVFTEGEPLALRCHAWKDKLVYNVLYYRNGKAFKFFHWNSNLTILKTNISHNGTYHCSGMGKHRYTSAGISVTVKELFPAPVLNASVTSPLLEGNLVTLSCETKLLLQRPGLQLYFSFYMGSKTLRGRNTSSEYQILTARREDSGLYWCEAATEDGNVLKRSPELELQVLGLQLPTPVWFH


Tests used:
Test in all cases: SPR
FcgRIIIaV = FcgRIIIaV (human, UniProt P08637)
FcgRIIaR = target: T1, FcgRIIaR
FcgRIIb = target: T2, FcgRIIb
FcgRIIaH = target: T3, FcgRIIaH
FcgRIa = target: T4, FcgRIa

Chain of FcgRIIIaV (P08637 17-208 F176V): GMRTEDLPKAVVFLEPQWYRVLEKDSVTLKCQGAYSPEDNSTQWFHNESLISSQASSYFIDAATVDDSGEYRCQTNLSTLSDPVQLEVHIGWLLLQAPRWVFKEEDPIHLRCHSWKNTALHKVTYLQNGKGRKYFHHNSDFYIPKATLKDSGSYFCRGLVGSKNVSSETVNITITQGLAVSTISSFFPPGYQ

Row | Binder | Kd (FcgRIIIaV) | Kd (FcgRIIaR) | Kd (FcgRIIb) | Kd (FcgRIIaH) | Kd (FcgRIa)
1 | IL6R-P729/IL6R-L (antibody) chain 1: QVQLQESGPGLVKPSETLSLTCAVSGHSISHDHAWSWVRQPPGEGLEWIGFISYSGITNYNPSLQGRVTISRDNSKNTLYLQMNSLRAEDTAVYYCARSLARTTAMDYWGEGTLVTVSSASTKGPSVFPLAPSSKSTSGGTAALGCLVKDYFPEPVTVSWNSGALTSGVHTFPAVLQSSGLYSLSSVVTVPSSSLGTQTYICNVNHKPSNTKVDKKVEPKSCDKTHTCPPCPAPELFGQDSVMLFPPKPKDTLMISRTPEVTCVVVDVSPEDPEVKFNWYVDGVEVHNAKTKPREEQENSTYRVVSVLTVLHQDWLNGKEYKCKVSNKALPAPIEKTISKAKGQPREPQVYTLPPSRDELTKNQVSLTCLVKGFYPSDIAVEWESNGQPENNYKTTPPVLDSDGSFFLYSKLTVDKSRWQQGNVFSCSVMHEALHNHYTQKSLSLSP chain 2: not shown | 56 µM | 83 µM | 4.4 µM | 180 µM | 0.66 µM
2 | IL6R-P602/IL6R-L (antibody) chain 1: QVQLQESGPGLVKPSETLSLTCAVSGHSISHDHAWSWVRQPPGEGLEWIGFISYSGITNYNPSLQGRVTISRDNSKNTLYLQMNSLRAEDTAVYYCARSLARTTAMDYWGEGTLVTVSSASTKGPSVFPLAPSSKSTSGGTAALGCLVKDYFPEPVTVSWNSGALTSGVHTFPAVLQSSGLYSLSSVVTVPSSSLGTQTYICNVNHKPSNTKVDKKVEPKSCDKTHTCPPCPAPELLGGDSVMLFPPKPKDTLMISRTPEVTCVVVDVSHEDPEVKFNWYVDGVEVHNAKTKPREEVENSTYRVVSVLTVLHQDWLNGKEYKCKVSNKALPAPIEKTISKAKGQPREPQVYTLPPSRDELTKNQVSLTCLVKGFYPSDIAVEWESNGQPENNYKTTPPVLDSDGSFFLYSKLTVDKSRWQQGNVFSCSVMHEALHNHYTQKSLSLSP chain 2: not shown | 61 µM | 44 µM | 2.4 µM | 100 µM | 0.019 µM
3 | IL6R-P689/IL6R-L (antibody) chain 1: QVQLQESGPGLVKPSETLSLTCAVSGHSISHDHAWSWVRQPPGEGLEWIGFISYSGITNYNPSLQGRVTISRDNSKNTLYLQMNSLRAEDTAVYYCARSLARTTAMDYWGEGTLVTVSSASTKGPSVFPLAPSSKSTSGGTAALGCLVKDYFPEPVTVSWNSGALTSGVHTFPAVLQSSGLYSLSSVVTVPSSSLGTQTYICNVNHKPSNTKVDKKVEPKSCDKTHTCPPCPAPELLGGDSVMLFPPKPKDTLMISRTPEVTCVVVDVSPEDPEVKFNWYVDGVEVHNAKTKPREEQENSTYRVVSVLTVLHQDWLNGKEYKCKVHNKALPAPIEKTISKAKGQPREPQVYTLPPSRDELTKNQVSLTCLVKGFYPSDIAVEWESNGQPENNYKTTPPVLDSDGSFFLYSKLTVDKSRWQQGNVFSCSVMHEALHNHYTQKSLSLSP chain 2: not shown | 52 µM | 78 µM | 4.7 µM | 120 µM | 0.028 µM
4 | IL6R-P692/IL6R-L (antibody) chain 1: QVQLQESGPGLVKPSETLSLTCAVSGHSISHDHAWSWVRQPPGEGLEWIGFISYSGITNYNPSLQGRVTISRDNSKNTLYLQMNSLRAEDTAVYYCARSLARTTAMDYWGEGTLVTVSSASTKGPSVFPLAPSSKSTSGGTAALGCLVKDYFPEPVTVSWNSGALTSGVHTFPAVLQSSGLYSLSSVVTVPSSSLGTQTYICNVNHKPSNTKVDKKVEPKSCDKTHTCPPCPAPELFGQDSVMLFPPKPKDTLMISRTPEVTCVVVDVSHEDPEVKFNWYVDGVEVHNAKTKPREEQENSTYRVVSVLTVLHQDWLNGKEYKCKVSNKALPHPIEKTISKAKGQPREPQVYTLPPSRDELTKNQVSLTCLVKGFYPSDIAVEWESNGQPENNYKTTPPVLDSDGSFFLYSKLTVDKSRWQQGNVFSCSVMHEALHNHYTQKSLSLSP chain 2: not shown | 57 µM | 56 µM | 2.7 µM | 120 µM | 0.53 µM
5 | IL6R-P604/IL6R-L (antibody) chain 1: QVQLQESGPGLVKPSETLSLTCAVSGHSISHDHAWSWVRQPPGEGLEWIGFISYSGITNYNPSLQGRVTISRDNSKNTLYLQMNSLRAEDTAVYYCARSLARTTAMDYWGEGTLVTVSSASTKGPSVFPLAPSSKSTSGGTAALGCLVKDYFPEPVTVSWNSGALTSGVHTFPAVLQSSGLYSLSSVVTVPSSSLGTQTYICNVNHKPSNTKVDKKVEPKSCDKTHTCPPCPAPELLGGDSVMLFPPKPKDTLMISRTPEVTCVVVDVSHEDPEVKFNWYVDGVEVHNAKTKPREEQENATYRVVSVLTVLHQDWLNGKEYKCKVSNKALPAPIEKTISKAKGQPREPQVYTLPPSRDELTKNQVSLTCLVKGFYPSDIAVEWESNGQPENNYKTTPPVLDSDGSFFLYSKLTVDKSRWQQGNVFSCSVMHEALHNHYTQKSLSLSP chain 2: not shown | 40 µM | 64 µM | 5.5 µM | 120 µM | 

Further lines, results first:

Row | Kd (FcgRIIIaV) | Kd (FcgRIIaR) | Kd (FcgRIIb) | Kd (FcgRIIaH) | Kd (FcgRIa) | Binder
6 | 44 µM | 58 µM | 4.1 µM | 110 µM |  | IL6R-P688/IL6R-L (antibody) chain 1: QVQLQESGPGLVKPSETLSLTCAVSGHSISHDHAWSWVRQPPGEGLEWIGFISYSGITNYNPSLQGRVTISRDNSKNTLYLQMNSLRAEDTAVYYCARSLARTTAMDYWGEGTLVTVSSASTKGPSVFPLAPSSKSTSGGTAALGCLVKDYFPEPVTVSWNSGALTSGVHTFPAVLQSSGLYSLSSVVTVPSSSLGTQTYICNVNHKPSNTKVDKKVEPKSCDKTHTCPPCPAPELLGGDSVMLFPPKPKDTLMISRTPEVTCVVVDVSPEDPEVKFNWYVDGVEVHNAKTKPREEQENSTYRVVSVLTVLHQDWLNGKEYKCKVNNKALPAPIEKTISKAKGQPREPQVYTLPPSRDELTKNQVSLTCLVKGFYPSDIAVEWESNGQPENNYKTTPPVLDSDGSFFLYSKLTVDKSRWQQGNVFSCSVMHEALHNHYTQKSLSLSP chain 2: not shown
7 | 48 µM | 39 µM | 2.6 µM | 68 µM | 0.016 µM | IL6R-P654/IL6R-L (antibody) chain 1: QVQLQESGPGLVKPSETLSLTCAVSGHSISHDHAWSWVRQPPGEGLEWIGFISYSGITNYNPSLQGRVTISRDNSKNTLYLQMNSLRAEDTAVYYCARSLARTTAMDYWGEGTLVTVSSASTKGPSVFPLAPSSKSTSGGTAALGCLVKDYFPEPVTVSWNSGALTSGVHTFPAVLQSSGLYSLSSVVTVPSSSLGTQTYICNVNHKPSNTKVDKKVEPKSCDKTHTCPPCPAPELLGGDSVMLFPPKPKDTLMISRTPEVTCVVVDVSHEDPEVKFNWYVDGVEVHNAKTKPREEQENSTYRVVSVLTVLHQDWLNGKEYKCKVNNKALPAPIEKTISKAKGQPREPQVYTLPPSRDELTKNQVSLTCLVKGFYPSDIAVEWESNGQPENNYKTTPPVLDSDGSFFLYSKLTVDKSRWQQGNVFSCSVMHEALHNHYTQKSLSLSP chain 2: not shown
8 | 50 µM | 39 µM | 1.9 µM | 84 µM | 0.028 µM | IL6R-P656/IL6R-L (antibody) chain 1: QVQLQESGPGLVKPSETLSLTCAVSGHSISHDHAWSWVRQPPGEGLEWIGFISYSGITNYNPSLQGRVTISRDNSKNTLYLQMNSLRAEDTAVYYCARSLARTTAMDYWGEGTLVTVSSASTKGPSVFPLAPSSKSTSGGTAALGCLVKDYFPEPVTVSWNSGALTSGVHTFPAVLQSSGLYSLSSVVTVPSSSLGTQTYICNVNHKPSNTKVDKKVEPKSCDKTHTCPPCPAPELLGGDSVMLFPPKPKDTLMISRTPEVTCVVVDVSHEDPEVKFNWYVDGVEVHNAKTKPREEQENSTYRVVSVLTVLHQDWLNGKEYKCKVSNKALPHPIEKTISKAKGQPREPQVYTLPPSRDELTKNQVSLTCLVKGFYPSDIAVEWESNGQPENNYKTTPPVLDSDGSFFLYSKLTVDKSRWQQGNVFSCSVMHEALHNHYTQKSLSLSP chain 2: not shown
